Experiment [1] addresses N-terminally His-tagged, full-length TraE (VirB8 homolog) from plasmid pKM101 (plasmid pKM101). In words: negative-stain EM.
In experiment [2] the target is periplasmic domain of TraE (plasmid pKM101). In words: cross-linking.

As to “N-terminally His-tagged, full-length TraE (VirB8 homolog) from plasmid pKM101 (natural protein)”, in experiment [1], the stoichiometry N is 6. Substance “periplasmic domain of TraE (domain or fragment)” gave a stoichiometry N in experiment [2] of 2.

The record behind these values is paper PMC6003364.
